Experimental data: patent US20250002605A1 (WUHAN YZY BIOPHARMA, published 2025)

How the values were obtained:
[1] = target: T1, human EpCAM on the cell surface (human, UniProt P16422 24-314); test: cell-based or functional assay
T1 sequence (looked up): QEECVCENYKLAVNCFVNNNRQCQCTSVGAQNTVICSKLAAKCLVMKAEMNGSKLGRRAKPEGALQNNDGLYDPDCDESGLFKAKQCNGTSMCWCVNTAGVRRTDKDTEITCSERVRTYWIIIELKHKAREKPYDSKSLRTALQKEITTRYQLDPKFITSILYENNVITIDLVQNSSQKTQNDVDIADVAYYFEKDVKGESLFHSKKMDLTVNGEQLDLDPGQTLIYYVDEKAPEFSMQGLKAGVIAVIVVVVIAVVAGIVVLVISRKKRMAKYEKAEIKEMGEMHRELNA

CD3 on Jurkat cells [2] = test: cell-based or functional assay
[3] = target: T1, human EpCAM on the cell surface; test: cell-based or functional assay; remark: listed apart in the source
CD3 on Jurkat cells [4] = test: cell-based or functional assay; remark: listed apart in the source
[5] = target: T1, human EpCAM on the cell surface; test: flow cytometry (FACS) on HCT116 cells, PE anti-human IgG Fc detection
[6] = target: T2, human EpCAM antigen (SB, Cat: 10694-H08H) (human, UniProt P16422 24-265); test: SPR (Biacore T200), antigen amine-coupled on CM5, antibody as analyte, 1:1 fit; D0 sample
T2 construct: Bought antigen immobilised on a CM5 chip
T2 sequence (looked up): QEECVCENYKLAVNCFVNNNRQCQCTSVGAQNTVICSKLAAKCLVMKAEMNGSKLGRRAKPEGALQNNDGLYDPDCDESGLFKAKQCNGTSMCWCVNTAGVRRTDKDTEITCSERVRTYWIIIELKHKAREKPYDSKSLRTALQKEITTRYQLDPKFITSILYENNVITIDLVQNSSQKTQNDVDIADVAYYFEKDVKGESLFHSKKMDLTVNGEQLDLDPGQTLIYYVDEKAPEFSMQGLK

[7] = target: T2, human EpCAM antigen (SB, Cat: …); test: SPR (Biacore T200), antigen amine-coupled on CM5, antibody as analyte, 1:1 fit; D14 sample after 14 days at 40 C
[8] = target: T3, human CD3 antigen (SB, Cat: CT038-H2508H) (human, UniProt P07766 23-126; P04234 22-105); test: SPR (Biacore T200), antigen amine-coupled on CM5, antibody as analyte, 1:1 fit; D0 sample
[9] = target: T3, human CD3 antigen (SB, Cat: …); test: SPR (Biacore T200), CD3 antigen amine-coupled on CM5, antibody as analyte, 1:1 fit
[10] = target: T3, human CD3 antigen (SB, Cat: …); test: SPR (Biacore T200), antigen amine-coupled on CM5, antibody as analyte, 1:1 fit; D14 sample after 14 days at 40 C

B1: M701A (bispecific antibody, human IgG1, kappa)
light: ELVMTQSPSSLTVTAGEKVTMSCKSSQSLLNSGNQKNYLTWYQQKPGQPPKLLIYWASTRESGVPDRFTGSGSGTDFTLTISSVQAEDLAVYYCQNDYSYPLTFGAGTKLEIKRTVAAPSVFIFPPSDEQLKSGTASVVCLLNNFYPREAKVQWKVDNALQSGNSQESVTEQDSKDSTYSLSSTLTLSKADYEKHKVYACEVTHQGLSSPVTKSFNRGEC
heavy: EVQLLEQSGAELVRPGTSVKISCKASGYAFTNYWLGWVKQRPGHGLEWIGDIFPGSGNIHYNEKFKGKATLTADKSSSTAYMQLSSLTFEDSAVYFCARLRNWDEPMDYWGQGTTVTVSSASTKGPSVFPLAPSSKSTSGGTAALGCLVKDYFPEPVTVSWNSGALTSGVHTFPAVLQSSGLYSLSSVVTVPSSSLGTQTYICNVNHKPSNTKVDKKVEPKSCDKTHTCPPCPAPELLGGPSVFLFPPKPKDTLMISRTPEVTCVVVDVSHEDPEVKFNWYVDGVEVHNAKTKPREEQYNSTYRVVSVLTVLHQDWLNGKEYKCKVSNKALPAPIEKTISKAKGQPREPQVYTLPPSRDELTKNQVSLWCLVKGFYPSDIAVEWESNGQPENNYDTTPPVLDSDGSFFLYSDLTVDKSRWQQGNVFSCSVMHEALHNHYTQKSLSLSPGK
chain: not shown
notes: YBODY format; also called bispecific antibody M701A
[1]
  cell bridging of HCT116 and Jurkat cells (CFSE/PKH26 double-positive cells, flow cytometry): ~40 % of the total PKH26-positive cells
CD3 on Jurkat cells [2]
  cell bridging of HCT116 and Jurkat cells (CFSE/PKH26 double-positive cells, flow cytometry): ~40 % of the total PKH26-positive cells
[3]
  EC50 (read off the curve), cell bridging of HCT116 and Jurkat [panel C]: ~10 ng/mL
CD3 on Jurkat cells [4]
  EC50 (read off the curve), cell bridging of HCT116 and Jurkat [panel C]: ~10 ng/mL
[5]
  EC50: 0.00357 µM
[6]
  Kd: 0.0171 µM
[7]
  Kd: 0.0173 µM

B2: M701 (bispecific antibody, human IgG1, kappa)
light: B1 light
heavy: B1 heavy
chain: not shown
notes: also called bispecific antibody M701
[1]
  killing EC50 (PBMC effector cells, HCT116 target cells): 69.2 ng/mL
[5]
  EC50: 0.0105 µM

B3: M701G (bispecific antibody, human IgG1, kappa)
light: B1 light
heavy: B1 heavy
chain: EVQLVESGGGLVQPGGSLRLSCAASGYSFTGYTMNWVRQAPGKGLEWVALINPYKGVSTYNQKFKDRFTISVDKSKNTAYLQMNSLRAEDTAVYYCARSGYYGDSDWYFDVWGQGTLVTVSSGGGGSGGGGSGGGGSDIQMTQSPSSLSASVGDRVTITCRASQDIRNYLNWYQQKPGKAPKLLIYYTSRLESGVPSRFSGSGSGTDYTLTISSLQPEDFATYYCQQGNTLPWTFGQGTKVEIKGAAAEPKSCDKTHTCPPCPAPELLGGPSVFLFPPKPKDTLMISRTPEVTCVVVDVSHEDPEVKFNWYVDGVEVHNAKTKPREEQYNSTYRVVSVLTVLHQDWLNGKEYKCKVSNKALPAPIEKTISKAKGQPREPQVYTLPPSRDELTKNQVSLTCRVKGFYPSDIAVEWESNGQPENNYKTTPPVLKSDGSFFLASKLTVDKSRWQQGNVFSCSVMHEALHNHYTQKSLSLSPGK
notes: YBODY format; also called bispecific antibody M701G
[6]
  Kd: 0.0197 µM
[8]
  Kd: 0.0188 µM

B4: M701J (bispecific antibody, human IgG1, kappa)
light: B1 light
heavy: EVQLLEQSGAELVRPGTSVKISCKASGYAFTNYWLGWVKQRPGHGLEWIGDIFPGSGNIHYNEKFKGKATLTADKSSSTAYMQLSSLTFEDSAVYFCARLRNWDEPMDYWGQGTTVTVSSASTKGPSVFPLAPSSKSTSGGTAALGCLVKDYFPEPVTVSWNSGALTSGVHTFPAVLQSSGLYSLSSVVTVPSSSLGTQTYICNVNHKPSNTKVDKKVEPKSCDKTHTCPPCPAPPVAGPSVFLFPPKPKDTLMISRTPEVTCVVVDVSHEAPEVQFNWYVDGVEVHNAKTKPREEQFNSTFRVVSVLTVVHQDWLNGKEYKCKVSNKGLPAPIEKTISKTKGQPREPQVYTLPPCRDELTKNQVSLWCLVKGFYPSDIAVEWESNGQPENNYKTTPPVLDSDGSFFLYSKLTVDKSRWQQGNVFSCSVMHEALHNHYTQKSLSLSPGK
chain: not shown
notes: YBODY format; also called bispecific antibody M701J
[5]
  EC50: 0.00378 µM
[6]
  Kd: 0.0182 µM
[7]
  Kd: 0.0187 µM

B5: M701B (bispecific antibody, human IgG1, kappa)
light: B1 light
heavy: B1 heavy
chain: QVQLVESGGGVVQPGRSLRLSCAASGFTFSTYAMNWVRQAPGKGLEWVARIRSKYNNYATYYADSVKDRFTISRDDSKNTLYLQMNSLRAEDTAVYYCARHGNFGNSYVSWFAYWGQGTLVTVSSGGGGSGGGGSGGGGSQTVVTQEPSLTVSPGGTVTLTCRSSTGAVTTSNYANWVQQKPGQAPRGLIGGTNKRAPGVPARFSGSLLGGKAALTLSGVQPEDEAEYYCALWYSNLWVFGGGTKVEIKGAAAEPKSCDKTHTCPPCPAPELLGGPSVFLFPPKPKDTLMISRTPEVTCVVVDVSHEDPEVKFNWYVDGVEVHNAKTKPREEQYNSTYRVVSVLTVLHQDWLNGKEYKCKVSNKALPAPIEKTISKAKGQPREPQVYTLPPSRDELTKNQVSLTCRVKGFYPSDIAVEWESNGQPENNYKTTPPVLKSDGSFFLASKLTVDKSRWQQGNVFSCSVMHEALHNHYTQKSLSLSPGK
notes: YBODY format; also called bispecific antibody M701B
[1]
  cell bridging of HCT116 and Jurkat cells (CFSE/PKH26 double-positive cells, flow cytometry): ~40 % of the total PKH26-positive cells
CD3 on Jurkat cells [2]
  cell bridging of HCT116 and Jurkat cells (CFSE/PKH26 double-positive cells, flow cytometry): ~40 % of the total PKH26-positive cells
[3]
  EC50 (read off the curve), cell bridging of HCT116 and Jurkat [panel C]: ~10 ng/mL
CD3 on Jurkat cells [4]
  EC50 (read off the curve), cell bridging of HCT116 and Jurkat [panel C]: ~10 ng/mL
[5]
  EC50: 0.00372 µM
[9]
  Kd: 0.0283 µM
[6]
  Kd: 0.02 µM
[8]
  Kd: 0.0283 µM
[7]
  Kd: 0.0226 µM
[10]
  Kd: 0.0315 µM

B6: M701K (bispecific antibody, human IgG1, kappa)
light: B1 light
heavy: B4 heavy
chain: QVQLVESGGGVVQPGRSLRLSCAASGFTFSTYAMNWVRQAPGKGLEWVARIRSKYNNYATYYADSVKDRFTISRDDSKNTLYLQMNSLRAEDTAVYYCARHGNFGNSYVSWFAYWGQGTLVTVSSGGGGSGGGGSGGGGSQTVVTQEPSLTVSPGGTVTLTCRSSTGAVTTSNYANWVQQKPGQAPRGLIGGTNKRAPGVPARFSGSLLGGKAALTLSGVQPEDEAEYYCALWYSNLWVFGGGTKVEIKGAAAEPKSCDKTHTCPPCPAPPVAGPSVFLFPPKPKDTLMISRTPEVTCVVVDVSHEAPEVQFNWYVDGVEVHNAKTKPREEQFNSTFRVVSVLTVVHQDWLNGKEYKCKVSNKGLPAPIEKTISKTKGQPREPQVCTLPPSRDELTKNQVSLSCAVKGFYPSDIAVEWESNGQPENNYKTTPPVLDSDGSFFLVSKLTVDKSRWQQGNVFSCSVMHEALHNHYTQKSLSLSPGK
notes: YBODY format; also called bispecific antibody M701K
[5]
  EC50: 0.00565 µM
[9]
  Kd: 0.0288 µM
[6]
  Kd: 0.0211 µM
[8]
  Kd: 0.0288 µM
[7]
  Kd: 0.0226 µM
[10]
  Kd: 0.0306 µM
